{
  "source": "IntAct's records for PubMed 15378002",
  "parents": {"B1": {"name": "Serine/threonine-protein kinase VRK1 (Homo sapiens), Q99986 (parent)", "chain": "MPRVKAAQAGRQSSAKRHLAEQFAVGEIITDMAKKEWKVGLPIGQGGFGCIYLADMNSSESVGSDAPCVVKVEPSDNGPLFTELKFYQRAAKPEQIQKWIRTRKLKYLGVPKYWGSGLHDKNGKSYRFMIMDRFGSDLQKIYEANAKRFSRKTVLQLSLRILDILEYIHEHEYVHGDIKASNLLLNYKNPDQVYLVDYGLAYRYCPEGVHKEYKEDPKRCHDGTIEFTSIDAHNGVAPSRRGDLEILGYCMIQWLTGHLPWEDNLKDPKYVRDSKIRYRENIASLMDKCFPEKNKPGEIAKYMETVKLLDYTEKPLYENLRDILLQGLKAIGSKDDGKLDLSVVENGGLKAKTITKKRKKEIEESKEPGVEDTEWSNTQTEEAIQTRSRTRKRVQK"}, "B2": {"name": "Transcription factor Jun (Homo sapiens), P05412 (parent)", "chain": "MTAKMETTFYDDALNASFLPSESGPYGYSNPKILKQSMTLNLADPVGSLKPHLRAKNSDLLTSPDVGLLKLASPELERLIIQSSNGHITTTPTPTQFLCPKNVTDEQEGFAEGFVRALAELHSQNTLPSVTSAAQPVNGAGMVAPAVASVAGGSGSGGFSASLHSEPPVYANLSNFNPGALSSGGGAPSYGAAGLAFPAQPQQQQQPPHHLPQQMPVQHPRLQALKEEPQTVPEMPGETPPLSPIDMESQERIKAERKRMRNRIAASKCRKRKLERIARLEEKVKTLKAQNSELASTANMLREQVAQLKQKVMNHVNSGCQLMLTQQLQTF", "partner": "B1 chain"}},
  "data": [
    {"variants_of": "B1", "conditions": "with jun_human JUN, P05412", "values": [
      {"variant": "K179E", "effect of a mutation on the interaction": "disrupting interaction"}
    ]},
    {"variants_of": "B2", "conditions": "with vrk1_human VRK1, Q99986", "values": [
      {"variant": "S63A;S73A", "effect of a mutation on the interaction": "decreasing interaction"}
    ]}
  ]
}
